Our source for the ratio to parent values is article PMC10707181, “Neuronal Scaffold Protein ARMS Interacts with Synaptotagmin-4 C2AB through the Ankyrin Repeat Domain with an Unexpected Mode” (International Journal of Molecular Sciences, 2023).

Sequences and labels used below:
B1: ARMS ankyrin repeats 1–11 (R1-11, residues 1–365) [rat] / Syt4 132–425 [human] (parent)
chain 1: MSVLISQSVINYVEEENIPALKALLEKCKDVDERNECGQTPLMLAAEQGNVEIVKELLKNGANCNLEDLDNWTALISASKEGHIHIVEELLKSGASLEHRDMGGWTALMWACYKGRTDVVELLLSHGANPSVTGLYSVYPIIWAAGRGHADIVHLLLQNGAKVNCSDKYGTTPLVWAARKGHLECVKHLLAMGADVDQEGANSMTALIVAVKGGYTQSVKEILKRNPNVNLTDKDGNTALMIASKEGHIEIVQDLLDAGTYVNIPDRSGDTVLIGAVRGGHVEIVRALLQKYADIDIRGQDNKTALYWAVEKGNATMVRDILQCNPDTEICTKDGETPLIKATKMRNIEVVELLLDKGAKVSAVD
chain 2: ESVSPESLKSSTSLTSEEKQEKLGTLFFSLEYNFERKAFVVNIKEARGLPAMDEQSMTSDPYIKMTILPEKKHKVKTRVLRKTLDPAFDETFTFYGIPYTQIQELALHFTILSFDRFSRDDIIGEVLIPLSGIELSEGKMLMNREIIKRNVRKSSGRGELLISLCYQSTTNTLTVVVLKARHLPKSDVSGLSDPYVKVNLYHAKKRISKKKTHVKKCTPNAVFNELFVFDIPCEGLEDISVEFLVLDSERGSRNEVIGQLVLGAAAEGTGGEHWKEICDYPRRQIAKWHVLCDG

One experiment covers variants of B1. Put plainly: ITC. The note with it: with Syt4 132–425 [human].
As to chain 1 MSVLISQSVINYVEEENIPALKALLEKCKDVDERNECGQTPLMLAAEQGNVEIVKELLKNGANCNLEDLDNWTALISASKEGHIHIVEELLKSGASLEHRDMGGWTALMWACYKGRTDVVELLLSHGANPSVTGLYSVYPIIWAAGRGHADIVHLLLQNGAKVNCSDKYGTTPLVWAARAGHLECVKHLLAMGADVDQEGANSMTALIVAVKGGYTQSVKEILKRNPNVNLTDKDGNTALMIASKEGHIEIVQDLLDAGTYVNIPDRSGDTVLIGAVRGGHVEIVRALLQKYADIDIRGQDNKTALYWAVEKGNATMVRDILQCNPDTEICTKDGETPLIKATKMRNIEVVELLLDKGAKVSAVD [chain 1 K180A], the ratio to parent was 0.9.

Staying with this experiment, now noted: with ARMS ankyrin repeats 1–11 (R1-11, residues 1–365) [rat].
In the case of chain 2 ESVSPESLKSSTSLTSEEKQEKLGTLFFSLEYNFERKAFVVNIKEARGLPAMDEQSMTSDPYIKMTILPEKKHKVKTRVLRKTLDPAFDETFTFYGIPYTQIQELALHFTILSFDRFSRDDIIGEVLIPLSGIELSEGKMLMNREIIKRNVRKSSGAGELLISLCYQSTTNTLTVVVLKARHLPKSDVSGLSDPYVKVNLYHAKKRISKKKTHVKKCTPNAVFNELFVFDIPCEGLEDISVEFLVLDSERGSRNEVIGQLVLGAAAEGTGGEHWKEICDYPRRQIAKWHVLCDG [chain 2 R157A], the ratio to parent amounted to 0.8. chain 2 ESVSPESLKSSTSLTSEEKQEKLGTLFFSLEYNFERKAFVVNIKEARGLPAMDEQSMTSDPYIKMTILPEKKHKVKTRVLRKTLDPAFDETFTFYGIPYTQIQELALHFTILSFDRFSRDDIIGEVLIPLSGIELSEGKMLMNREIIAANVRKSSGRGELLISLCYQSTTNTLTVVVLKARHLPKSDVSGLSDPYVKVNLYHAKKRISKKKTHVKKCTPNAVFNELFVFDIPCEGLEDISVEFLVLDSERGSRNEVIGQLVLGAAAEGTGGEHWKEICDYPRRQIAKWHVLCDG [chain 2 K148A R149A]: the ratio to parent is 0.8. Regarding chain 2 ESVSPESLKSSTSLTSEEKQEKLGTLFFSLEYNFERKAFVVNIKEARGLPAMDEQSMTSDPYIKMTILPEKKHKVKTRVLRKTLDPAFDETFTFYGIPYTQIQELALHFTILSFDRFSRDDIIGEVLIPLSGIELSEGKMLMNREIIKRNVRASSGRGELLISLCYQSTTNTLTVVVLKARHLPKSDVSGLSDPYVKVNLYHAKKRISKKKTHVKKCTPNAVFNELFVFDIPCEGLEDISVEFLVLDSERGSRNEVIGQLVLGAAAEGTGGEHWKEICDYPRRQIAKWHVLCDG [chain 2 K153A], the ratio to parent stood at 0.3. On the same count and under the same terms, next, chain 2 ESVSPESLKSSTSLTSEEKQEKLGTLFFSLEYNFERKAFVVNIKEARGLPAMDEQSMTSDPYIKMTILPEKKHKVKTRVLRKTLDPAFDETFTFYGIPYTQIQELALHFTILSFDRFSRDDIIGEVLIPLSGIELSEGKMLMNREIIKRNVAASSGRGELLISLCYQSTTNTLTVVVLKARHLPKSDVSGLSDPYVKVNLYHAKKRISKKKTHVKKCTPNAVFNELFVFDIPCEGLEDISVEFLVLDSERGSRNEVIGQLVLGAAAEGTGGEHWKEICDYPRRQIAKWHVLCDG [chain 2 R152A K153A]: 0.3. Take chain 2 ESVSPESLKSSTSLTSEEKQEKLGTLFFSLEYNFERKAFVVNIKEARGLPAMDEQSMTSDPYIKMTILPEKKHKVKTRVLRKTLDPAFDETFTFYGIPYTQIQELALHFTILSFDRFSRDDIIGEVLIPLSGIELSEGKMLMNREIIKRNVAKSSGRGELLISLCYQSTTNTLTVVVLKARHLPKSDVSGLSDPYVKVNLYHAKKRISKKKTHVKKCTPNAVFNELFVFDIPCEGLEDISVEFLVLDSERGSRNEVIGQLVLGAAAEGTGGEHWKEICDYPRRQIAKWHVLCDG [chain 2 R152A]: the ratio to parent was 0.3. Take chain 2 ESVSPESLKSSTSLTSEEKQEKLGTLFFSLEYNFERKAFVVNIKEARGLPAMDEQSMTSDPYIKMTILPEKKHKVKTRVLRKTLDPAFDETFTFYGIPYTQIQELALHFTILSFDRFSRDDIIGEVLIPLSGIELSEGKMLMNREIIAANVAKSSGRGELLISLCYQSTTNTLTVVVLKARHLPKSDVSGLSDPYVKVNLYHAKKRISKKKTHVKKCTPNAVFNELFVFDIPCEGLEDISVEFLVLDSERGSRNEVIGQLVLGAAAEGTGGEHWKEICDYPRRQIAKWHVLCDG [chain 2 K148A R149A R152A]: the ratio to parent amounted to 1.6. Same read-out and setting: under chain 2 ESVSPESLKSSTSLTSEEKQEKLGTLFFSLEYNFERKAFVVNIKEARGLPAMDEASMTSDPYIKMTILPEKKHKVKTRVLRKTLDPAFDETFTFYGIPYTQIQELALHFTILSFDRFSRDDIIGEVLIPLSGIELSEGKMLMNREIIKRNVRKSSGRGELLISLCYQSTTNTLTVVVLKARHLPKSDVSGLSDPYVKVNLYHAKKRISKKKTHVKKCTPNAVFNELFVFDIPCEGLEDISVEFLVLDSERGSRNEVIGQLVLGAAAEGTGGEHWKEICDYPRRQIAKWHVLCDG [chain 2 Q55A] stands 0.3.
